B1: HESX1 (parent)
chain: QKKDCVPLMKPHRPWADTCSSSGK
B2: ESRRA (parent)
chain: SLPLQDELAFAEDLVLDEEGARAA

Variants of: B1
Test: protein stability index of a GFP-peptide fusion (GPS, HEK-293T) (PSI 1-6); higher = more stable
Settings: c terminus: a fixed tail appended
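Further: lentivirally expressed fusions sorted by FACS into six bins by GFP to DsRed ratio, PSI derived from sequencing read proportions per bin multiplied by bin number.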

Protein stability index, by site and new letter:
T18: M 2.44, G 3.69, P 4.02, L 2.24, Q 3.36, S 3.28, C 3.15, H 2.13, Y 2.25, N 3.75, K 4.01, D 3.96, I 1.57, R 2.69, A 3.41, V 1.9, F 2.35, W 2.94, E 4.29
A16: Y 3.49, G 3.57, R 3.45, E 3.9, W 3.39, L 3.75, D 4.66, P 3.96, T 3.76, C 3.72, N 4.2, Q 4, F 3.44, M 4.02, K 3.96, S 3.72, V 2.46, H 3.98, I 3.34
P14: D 3.21, S 3.1, W 2.96, K 2.81, N 2.72, F 3.1, L 3.06, M 2.84, E 4.12, Q 3.88, V 2.23, A 2.52, I 3.26, H 3.95, Y 2.98, C 2.36, G 3.96
R13: K 3.5, W 3.4, Y 3.64, V 3.11, C 3.26, Q 4.18, T 3.33, D 4.11, L 3.4, F 3.75, H 3.6, P 3.25, G 4.21, E 4.97, I 3.66, N 4.15, M 3.06
G23: C 2.45, Y 3.15, K 4.08, S 3.32, V 2.33, R 3.5, M 3.08, P 3.81, I 2.76, N 3.13, D 2.46, L 3.46, W 1.6, A 3.69, H 2.62, F 1.61
D17: Y 3.17, N 3.22, G 3.45, P 3.6, F 3.07, C 2.81, I 2.57, S 3.74, Q 3.89, M 3.36, K 3.91, V 2.91, R 3.46, W 2.78, H 3.71, E 3.53, T 3.06, A 3.48
M9: A 3.69, Y 3.2, E 4.04, W 3, N 3.58, T 3.77, K 3.08, R 3.13, G 4.27, D 4.08, H 3.89, L 3.41, C 3.76, S 2.93, P 3.51, F 2.85, I 3.23
K10: S 3.74, Q 4.19, C 3.88, V 3.94, A 3.18, M 2.92, T 3.35, H 3.79, D 4.83, F 3.21, N 4.25, G 3.47, L 3.58, W 2.52, R 3.48, I 3.7, Y 3.45
C19: S 4.36, W 2.47, M 4.19, Y 3.25, E 4.32, D 3.9, N 4.83, T 3.82, I 2.45, P 4.37, V 2.17, H 3.77, K 4.47, L 3.13, R 4.08, Q 4.03, A 4.07, F 2.66
W15: M 4.57, C 4.02, F 3.47, S 4.8, I 4.26, K 4.92, T 5.26, N 4.79, H 4.64, Y 4.39, Q 4.79, G 4.96, E 5.37, A 4.62, P 4.35, D 4.81, L 4.66
S20: Y 2.31, H 3.24, V 3.84, L 2.61, K 3.83, T 2.96, D 3.32, M 3.18, G 2.38, A 3.71, F 2.3, I 2.98, E 3.47, W 2.74, N 3.33, Q 3.05, R 3, C 3.03, P 3.79
S21: C 2.92, N 3.4, A 3.61, G 3.92, R 2.56, P 3.58, L 3.18, T 3.38, H 2.88, Q 3.75, K 3.68, E 3.86, M 2.58, D 3.24, Y 2.32, W 2.79, I 2.69, V 3.15, F 2.44
H12: R 4.82, Y 3.29, Q 3.94, L 3.91, F 3.25, A 4, C 3.42, G 3.98, I 3.07, W 2.29, T 3.08, D 4.49, N 3.77, S 4.05, P 4.01, K 3.73, M 3.18, E 4.44
K24: Y 1.98, G 3.62, T 2.85, P 3.18, S 2.23, D 3.22, A 3.7, C 3.33, L 1.78, E 2.28, Q 3.57, I 2.51, H 2.46, F 2.56, N 2.97, W 1.98, M 2.05, V 2.55
L8: W 3.47, Y 3.78
P11: A 3.29, Q 2.74, L 2.85, W 3.16, M 3.83, E 3.1, G 3.87, D 3.96, S 3.64, N 3.48, R 3.46, Y 2.55, F 3.03, T 4.68, H 3.51, K 3.42, I 3.42
S22: N 2.89, M 3.43, K 3.69, F 2.74, T 3.08, E 3.13, R 3.3, A 2.95, I 3.13, G 2.23, P 3.68, W 2.12, Y 3.29, V 2.78, C 2.94, D 2.61, H 3.96

Variants of: B2
Test: as above
Settings: c terminus: a fixed tail appended

Protein stability index of substitutions, site by site:
E7: V 2.03, D 3.63, R 4.96
A11: V 5.07
L8: Y 4.77, H 5.5, W 5.29, Q 5.29
E18: M 2.42, I 3.81, D 4.8
V15: S 5.76
D6: R 2.65, T 2.89
L16: Q 3.54
A23: R 2.83
D17: K 2.46, M 2.03
G20: I 3.08
P3: V 4.91, G 4.7
L2: F 3.06
A21: N 2.91, H 3.09, C 3.01
D13: F 3.31
A24: L 2.75
L14: W 4.92, T 5.13
R22: W 2.53, D 4.19
A9: Y 4.19, W 3.68, H 3.67, I 4.8, Q 3.61
F10: W 2.96, E 4.35
L4: K 5.08, A 5.45, H 5.41, P 5.46, G 5.68
E19: R 2.02, C 2.79, H 2.33
S1: P 3.54, Q 3.09, R 3.28

From the supplement of paper PMC10567573
